Two molecules from patent US20200277385A1 (LABORATOIRE FRANCAIS DU FRACTIONNEMENT ET DES …, published 2020) can be followed below.

Experiment [1] has as its target T1, human CD303 antigen expressed on cells (human, UniProt Q8WTT0 1-213).
T1 sequence: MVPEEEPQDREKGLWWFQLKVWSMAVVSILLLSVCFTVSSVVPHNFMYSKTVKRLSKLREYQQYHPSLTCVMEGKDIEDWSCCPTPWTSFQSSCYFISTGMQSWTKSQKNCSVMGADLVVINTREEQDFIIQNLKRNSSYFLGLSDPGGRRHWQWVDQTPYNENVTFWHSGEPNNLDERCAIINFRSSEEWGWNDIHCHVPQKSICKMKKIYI
The experiment in a line: cell-based or functional assay.

Experiment [2] deals with T1, human CD303 antigen expressed on cells. The experiment in a line: cell-based or functional assay. The source holds these as a separate data set.
Experiment [3] has the same target. The experiment in a line: flow cytometry on CAL-1 cells. As to the method:
(§1) The CD303-expressing cells and the antibodies are prepared in diluent (PBS+1% FCS). 1·10⁵ cells are incubated at 4° C. for 30 minutes with 100 μL of antibody (anti-CD303 or negative control) at various concentrations (0-40 μg/mL, final concentration).
(§2) After washing with the diluent, the antibodies are visualized by addition of a phycoerythrin (PE)-coupled goat anti-mouse IgG F(ab′)₂ fragment (100 μL diluted to 1:100 in the diluent) for 45 minutes at 4° C. The cells are then washed and analyzed by flow cytometry (FC500, Beckman Coulter).

The target is the same in experiment [4]. Description: flow cytometry on Fcγ chain-CD303 Jurkat cells. As to the method:
as §1, §2
In general terms: A flow cytometer gives signals particle by particle.

For experiment [5] the target is unchanged. The experiment in a line: flow cytometry on CAL-1 cells (experiment with BIIB059). The procedure:
as §1, §2

Experiment [6] deals with T2, FcγRIIIa (CD16a) (UniProt P08637 17-254, limits assumed).
T2 construct: whole, on cells; also called Fcγ receptor III
Description: competition with 3G8-PE for CD16 on NK cells, flow cytometry.

Experiment [7] addresses T2, FcγRIIIa (CD16a). Description: competition with 3G8-PE for CD16 on NK cells, flow cytometry (second experiment).
The target in experiment [8] is T1, human CD303 antigen expressed on cells. Description: flow cytometry on CAL-1 cells transfected with CD303 (about 40,000-50,000 CD303/cell). The procedure:
as §1, §2

For experiment [9] the target is unchanged. Description: cell-based or functional assay. This is another data set of the same source.

T2 sequence (P08637 17-254 limits assumed): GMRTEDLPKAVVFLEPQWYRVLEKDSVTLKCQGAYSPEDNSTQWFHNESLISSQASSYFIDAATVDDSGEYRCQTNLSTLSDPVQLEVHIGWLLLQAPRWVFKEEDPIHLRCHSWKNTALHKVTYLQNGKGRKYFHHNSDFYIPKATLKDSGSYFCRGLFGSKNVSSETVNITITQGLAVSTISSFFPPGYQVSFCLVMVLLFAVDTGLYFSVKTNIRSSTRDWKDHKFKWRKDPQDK

B1: chimeric antibody 102E9 (antibody, human IgG1, kappa)
heavy: not shown
light: QIVLTQSPAIMSASPGEKVTITCSASSSVIYIHWFQQKPGTSPKLWIYSTSYLASGVPARFSGSGSGTSYSLTISRMEAEDAATYYCQQRRSYPFTFGGGTKLEIKRTVAAPSVFIFPPSDEQLKSGTASVVCLLNNFYPREAKVQWKVDNALQSGNSQESVTEQDSKDSTYSLSSTLTLSKADYEKHKVYACEVTHQGLSSPVTKSFNRGEC
notes: also called ch.102E9
As for B1, the “ADCC EC50, Fcγ chain-CD303 Jurkat target cells with NK cells” value in experiment [1] worked out at 0.00342 µg/mL. In addition, in [1], the “ADCC Emax (% lysis), Fcγ chain-CD303 Jurkat target cells with NK cells” value came to 38.9 % lysis. In [2], the “ADCC EC50, CAL-1 target cells” value came to 0.0038 µg/mL. Moreover, the “Bmax (MFI)” value in [3] worked out at 30.5 MFI; in [4], 24.9 MFI. Also, the EC50 – broadly, the concentration giving half of the maximal effect – in experiment [3] was found to be 1.81 µg/mL; in [4], 3.87 µg/mL; in experiment [5], 0.44 µg/mL; in [8], 0.363 µg/mL. Also, the half-inhibitory concentration (IC50) – broadly, the point on the concentration scale where inhibition reaches its midpoint – came to 37 µg/mL with FcγRIIIa (CD16a) [6] and 13 µg/mL with FcγRIIIa (CD16a) [7].

B2: chimeric antibody 122A2 (antibody, human IgG1, kappa)
heavy: not shown
light: DIQMTQTTSSLSASLGDRVTISCRASQDISNYLNWYQQKPDGTVKLLIYYTSRLHSGVPSRFSGSGSGTDYSLTISNLDQEDIATYFCQQGNTLPWTFGGGTKLEIKRTVAAPSVFIFPPSDEQLKSGTASVVCLLNNFYPREAKVQWKVDNALQSGNSQESVTEQDSKDSTYSLSSTLTLSKADYEKHKVYACEVTHQGLSSPVTKSFNRGEC
notes: also called ch.122A2; ch122A2
Regarding B2, in experiment [1], the “ADCC EC50, Fcγ chain-CD303 Jurkat target cells with NK cells” value stood at 0.000159 µg/mL. The “ADCC Emax (% lysis), Fcγ chain-CD303 Jurkat target cells with NK cells” value in experiment [1] amounted to 42.4 % lysis. Besides, the “ADCC EC50, CAL-1 target cells” value in experiment [2] came out at 0.00093 µg/mL. The “IC50 for IFN-α secretion from pDCs contained in PBMCs” value in experiment [9] worked out at 0.959 ng/mL. Also, the “Bmax (MFI)” value turned out to be 25.2 MFI in experiment [3] and 26.2 MFI in [4]. The EC50 stood at 0.207 µg/mL in [3], 0.128 µg/mL in experiment [4], 0.06 µg/mL in experiment [5] and 0.142 µg/mL in [8]. In addition, the concentration for half-maximal inhibition (IC50) turned out to be 40.4 µg/mL with FcγRIIIa (CD16a) [6] and 13 µg/mL with FcγRIIIa (CD16a) [7].
